Measurements reported in doi:10.1101/2022.09.15.508077 (bioRxiv, 2022).
Blank lines part the entries; values can stand above or below the binder they belong to.

What was measured:
UFC1 [1] = biological target: T1, UFC1 (UniProt Q9Y3C8 1-167); assay: NMR titration
T1 sequence: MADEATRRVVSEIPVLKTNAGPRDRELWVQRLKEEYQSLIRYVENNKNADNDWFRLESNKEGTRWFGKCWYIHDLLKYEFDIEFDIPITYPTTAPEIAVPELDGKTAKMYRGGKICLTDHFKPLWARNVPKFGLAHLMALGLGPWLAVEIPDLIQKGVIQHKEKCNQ

UFC1 [2] = biological target: T1, UFC1; assay: ITC
[3] = biological target: T2, UFL1 27-200 (the UFL1 piece of the fusion DDRGK1-UFL1ΔN) (UniProt O94874 27-200); assay: crystal structure
T2 sequence: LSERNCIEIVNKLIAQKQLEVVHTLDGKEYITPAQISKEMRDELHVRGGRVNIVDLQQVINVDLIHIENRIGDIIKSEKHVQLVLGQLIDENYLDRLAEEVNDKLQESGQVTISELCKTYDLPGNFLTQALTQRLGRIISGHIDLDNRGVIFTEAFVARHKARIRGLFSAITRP

binding result (UFC1 [1]): binds
B1: UBA5 C-terminus (UBA5 347-404) (domain or fragment)
chain: SEVSEEELKNFSGPVPDLPEGITVAYTIPKKQEDSVTELTVEDSGESLEDLMAKMKNM

Kd (UFC1 [2]): 2400 nM
B2: DDRGK1_(207-314)-UFL1_(1-200) fusion protein (other)
chain: MTEEQSQSFLTEFINYIKQSKVVLLEDLASQVGLRTQDTINRIQDLLAEGTITGVIDDRGKFIYITPEELAAVANFIRQRGRVSIAELAQASNSLIAWGRESPAQAPAMADAWEEIRRLAADFQRAQFAEATQRLSERNCIEIVNKLIAQKQLEVVHTLDGKEYITPAQISKEMRDELHVRGGRVNIVDLQQVINVDLIHIENRIGDIIKSEKHVQLVLGQLIDENYLDRLAEEVNDKLQESGQVTISELCKTYDLPGNFLTQALTQRLGRIISGHIDLDNRGVIFTEAFVARHKARIRGLFSAITRP

binding result [3]: binds
B3: DDRGK1 207-305 (the DDRGK1 piece of the fusion DDRGK1-UFL1ΔN) (domain or fragment)
chain: MTEEQSQSFLTEFINYIKQSKVVLLEDLASQVGLRTQDTINRIQDLLAEGTITGVIDDRGKFIYITPEELAAVANFIRQRGRVSIAELAQASNSLIAWG
